{"source": "paper PMC4726272", "key": {"[1]": {"test_system": "RcsB-6His (Dickeya dadantii 3937 (EC3937)?)", "assay": "EMSA", "details": "10 mM Tris pH 7.5, 50 mM NaCl, 0.5 mM DTT, 1 mM MgCl2, 2.5% glycerol; 20 min at room temperature; 50 ng DNA in 20 ul; 6% acrylamide-TBE gel"}, "[2]": {"test_system": "OmpR-6His (Dickeya dadantii 3937 (EC3937))", "assay": "EMSA", "details": "10 mM Tris pH 7.5, 50 mM NaCl, 0.5 mM DTT, 1 mM MgCl2, 2.5% glycerol; 20 min at room temperature; 50 ng DNA in 20 ul; 6% acrylamide-TBE gel"}}, "data": [{"substance": "opgC promoter region", "values": [{"measurement": "binding", "setting": "[1]", "result": 300, "unit": "ng"}, {"measurement": "binding", "setting": "[2]", "result": 500, "unit": "ng"}]}]}
